From US20040038340

Columns and labels:
[1] = target: T1, HPr(His)6 from B. subtilis, P08877
T1 chain: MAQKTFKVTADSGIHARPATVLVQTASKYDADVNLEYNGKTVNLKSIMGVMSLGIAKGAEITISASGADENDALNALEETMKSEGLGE

[2] = target: T2, P-Ser-HPr(His)6 from B. subtilis, P08877
T2 chain: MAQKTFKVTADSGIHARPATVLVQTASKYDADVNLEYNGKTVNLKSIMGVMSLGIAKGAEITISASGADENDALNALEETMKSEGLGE

B1: His-tagged L. casei HprK (protein)
chain: MADSVTVRQLVKATKLEVYSGEEYLDQRQVVLSDISRPGLELTGYFNYYPHERIQLFGRTEISFARNMSSEERLLILKRMATEDTPAFLVSRGLEAPAEMITAATAAHIPVLGSRLPTTRLSSLITEYLDSQLAERRSMHGVLVDIYGLGVLITGDSGVGKSETALELVQRGHRLIADDRVDVYQQDEQTIVGAAPPILSHLLEIRGLGIIDVMNLFGAGAVREDTTISLIVHLENWTPDKTFDRLGSGEQTQLIFDVPVPKITVPVKVGRNLAIIIEVAAMNFRAKSMGYDATKTFEKNLNHLIEHNEETDQNSSGDK
- HPr kinase activity (ATP-dependent HPr phosphorylation, non-denaturing gel) [1]: HprK of L. casei was indeed found to be bifunctional
- P-Ser-HPr phosphatase activity (non-denaturing gel) [2]: HprK of L. casei was indeed found to be bifunctional
